Source: EP4755449A2 (CHUGAI SEIYAKU KABUSHIKI KAISHA, dated 2026)
Positions count from the first letter of the chain named. In names and notes the source's numbering stands. Blank lines part the entries; values can stand above or below the binder they belong to.

How the values were obtained:
[1] = biological target: T1, human Fc gamma RIIb extracellular domain, His-tagged (human, UniProt P31994 43-217); experiment: SPR 25C, antigen-antibody complex injected over captured His-tagged receptor
T1 construct: also called FcgRIIb
T1 sequence: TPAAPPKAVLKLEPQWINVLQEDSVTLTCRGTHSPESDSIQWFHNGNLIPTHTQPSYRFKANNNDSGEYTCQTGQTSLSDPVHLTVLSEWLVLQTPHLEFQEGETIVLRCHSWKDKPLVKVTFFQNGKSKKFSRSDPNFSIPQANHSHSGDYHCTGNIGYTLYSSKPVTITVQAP

[2] = biological target: T2, human latent myostatin (human, UniProt O14793 25-266; O14793 267-375); experiment: SPR 37C pH7.4
T2 construct: non-covalent complex of two propeptides and the mature homodimer; also called human myostatin latent form
T2 sequence 1: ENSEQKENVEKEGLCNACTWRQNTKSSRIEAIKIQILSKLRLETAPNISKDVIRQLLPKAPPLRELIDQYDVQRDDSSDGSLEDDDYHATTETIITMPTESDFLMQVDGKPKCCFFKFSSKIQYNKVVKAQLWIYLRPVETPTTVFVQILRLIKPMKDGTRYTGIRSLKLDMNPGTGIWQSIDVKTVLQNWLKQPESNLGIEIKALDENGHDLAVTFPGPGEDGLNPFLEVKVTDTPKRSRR
T2 sequence 2: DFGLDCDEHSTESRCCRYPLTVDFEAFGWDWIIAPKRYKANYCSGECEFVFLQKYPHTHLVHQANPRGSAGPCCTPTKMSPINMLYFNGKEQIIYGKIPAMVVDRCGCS

[3] = biological target: T3, cynomolgus monkey latent myostatin (cynomolgus monkey, UniProt Q95J86 25-266; Q95J86 267-375, limits assumed); experiment: SPR avidity condition pH7.4 37C; pH 7.4
T3 construct: also called cyno latent myostatin
T3 sequence 1: T2 sequence 1 with V52A
T3 sequence 2: T2 sequence 2

[4] = biological target: T4, mouse latent myostatin (mouse, UniProt O08689 26-267; O08689 268-376); experiment: SPR avidity condition pH7.4 37C; pH 7.4
T4 sequence 1: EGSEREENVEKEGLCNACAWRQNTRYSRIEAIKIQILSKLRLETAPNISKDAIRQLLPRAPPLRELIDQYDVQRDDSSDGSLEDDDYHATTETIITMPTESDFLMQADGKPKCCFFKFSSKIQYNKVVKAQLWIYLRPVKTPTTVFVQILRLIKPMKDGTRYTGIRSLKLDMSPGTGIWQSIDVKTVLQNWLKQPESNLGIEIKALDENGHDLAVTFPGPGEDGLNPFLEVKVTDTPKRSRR
T4 sequence 2: T2 sequence 2

[5] = biological target: T2, human latent myostatin; experiment: SPR avidity condition pH7.4 37C; pH 7.4
[6] = biological target: T3, cynomolgus monkey latent myostatin; experiment: SPR affinity condition pH7.4 37C; pH 7.4
[7] = biological target: T4, mouse latent myostatin; experiment: SPR affinity condition pH7.4 37C; pH 7.4
[8] = biological target: T2, human latent myostatin; experiment: SPR affinity condition pH7.4 37C; pH 7.4
[9] = biological target: T3, cynomolgus monkey latent myostatin; experiment: SPR affinity condition pH5.8 37C; pH 5.8
[10] = biological target: T4, mouse latent myostatin; experiment: SPR affinity condition pH5.8 37C; pH 5.8
[11] = biological target: T2, human latent myostatin; experiment: SPR affinity condition pH5.8 37C; pH 5.8
[12] = biological target: T3, cynomolgus monkey latent myostatin; experiment: SPR avidity condition pH5.8 37C; pH 5.8
[13] = biological target: T4, mouse latent myostatin; experiment: SPR avidity condition pH5.8 37C; pH 5.8
[14] = biological target: T2, human latent myostatin; experiment: SPR avidity condition pH5.8 37C; pH 5.8
[15] = biological target: T2, human latent myostatin; experiment: SPR, dissociation phase at pH5.8
[16] = biological target: T3, cynomolgus monkey latent myostatin; experiment: SPR affinity condition pH7.4 37C
[17] = biological target: T4, mouse latent myostatin; experiment: SPR affinity condition pH7.4 37C
[18] = biological target: T2, human latent myostatin; experiment: SPR affinity condition pH7.4 37C
[19] = biological target: T5, GST-hMSTN 101-200aa (human, UniProt A1C2U3 101-200 (Pongo pygmaeus entry)); experiment: Western blot
T5 construct: not shown: GST tag of pGEX4.1 vector
T5 sequence: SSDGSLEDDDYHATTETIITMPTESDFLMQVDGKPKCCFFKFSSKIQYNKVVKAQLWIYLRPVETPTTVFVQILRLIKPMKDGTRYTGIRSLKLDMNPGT

[20] = biological target: T6, GST-hMSTN 141-241aa (human, UniProt A1C2U3 141-241 (Pongo pygmaeus entry)); experiment: Western blot
T6 construct: not shown: GST tag of pGEX4.1 vector
T6 sequence: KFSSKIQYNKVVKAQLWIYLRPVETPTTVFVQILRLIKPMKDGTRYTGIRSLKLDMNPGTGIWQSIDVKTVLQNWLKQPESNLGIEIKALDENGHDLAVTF

[21] = biological target: T7, GST-hMSTN 121-220aa (human, UniProt A1C2U3 121-220 (Pongo pygmaeus entry)); experiment: Western blot
T7 construct: not shown: GST tag of pGEX4.1 vector
T7 sequence: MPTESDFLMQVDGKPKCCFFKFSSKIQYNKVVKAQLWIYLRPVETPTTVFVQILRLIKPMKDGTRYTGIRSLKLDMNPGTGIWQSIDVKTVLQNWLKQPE

[22] = biological target: T8, human Fc gamma RIIIaV extracellular domain, His-tagged (human, UniProt P08637 17-208); experiment: SPR 25C
T8 construct: also called FcgRIIIaV
T8 sequence (P08637 17-208 F176V): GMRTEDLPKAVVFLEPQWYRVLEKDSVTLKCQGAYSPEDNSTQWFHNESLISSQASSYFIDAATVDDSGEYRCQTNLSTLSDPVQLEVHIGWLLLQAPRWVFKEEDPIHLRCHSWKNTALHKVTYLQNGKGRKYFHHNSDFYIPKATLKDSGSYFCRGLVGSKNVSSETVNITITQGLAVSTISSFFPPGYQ

B4: MS_M103205H000-SG1/M103202L000-SK1 (antibody, human IgG1, kappa, V domains shown)
VH: QVTLKESGPVLVKPTETLTLTCTVSGIDLSSYDISWVRQAPGKGLEWVGIISYAGSTYYASWAKGRLTISKDTSKNQVVLTMTNMDPVDTATYYCARGVPAYSTGGDLWGQGTLVTVSS
VL: DIVMTQSPATLSLSPGERATLSCQSSQSVYDNNWLSWFQQKPGQPPKLLIYWASTLASGVPSRFSGSGSGTDFTLTISSLQPEDAATYYCAGGYGGGLYAFGQGTKVEIKR
notes: humanized; also called MS1032LO00-SG1; Ab001
Kd [2]: 0.075 nM
koff [2]: 9.52e-05 s⁻¹
kon [2]: 1.27e+06 M⁻¹ s⁻¹
Kd [3]: 0.0666 nM
koff [3]: 8.08e-05 s⁻¹
kon [3]: 1.21e+06 M⁻¹ s⁻¹
Kd [4]: 0.0471 nM
koff [4]: 7.18e-05 s⁻¹
kon [4]: 1.52e+06 M⁻¹ s⁻¹
Kd [5]: 0.075 nM
koff [5]: 9.52e-05 s⁻¹
kon [5]: 1.27e+06 M⁻¹ s⁻¹
Kd [6]: 0.209 nM
koff [6]: 0.000213 s⁻¹
kon [6]: 1.02e+06 M⁻¹ s⁻¹
Kd [7]: 0.122 nM
koff [7]: 0.00016 s⁻¹
kon [7]: 1.31e+06 M⁻¹ s⁻¹
Kd [8]: 0.23 nM
koff [8]: 0.000245 s⁻¹
kon [8]: 1.07e+06 M⁻¹ s⁻¹
Kd [9]: 0.139 nM
koff [9]: 0.000196 s⁻¹
kon [9]: 1.41e+06 M⁻¹ s⁻¹
Kd [10]: 0.0438 nM
koff [10]: 7.08e-05 s⁻¹
kon [10]: 1.62e+06 M⁻¹ s⁻¹
Kd [11]: 0.215 nM
koff [11]: 0.000235 s⁻¹
kon [11]: 1.09e+06 M⁻¹ s⁻¹
Kd [12]: 0.00883 nM
koff [12]: 1.58e-05 s⁻¹
kon [12]: 1.79e+06 M⁻¹ s⁻¹
Kd [13]: 0.0087 nM
koff [13]: 2.02e-05 s⁻¹
kon [13]: 2.32e+06 M⁻¹ s⁻¹
Kd [14]: 0.0797 nM
koff [14]: 0.000128 s⁻¹
kon [14]: 1.6e+06 M⁻¹ s⁻¹
koff [15]: 2.92e-05 s⁻¹

B7: GpH7-B3 G237Y/GpL16-k0 (antibody, human IgG1, kappa)
heavy: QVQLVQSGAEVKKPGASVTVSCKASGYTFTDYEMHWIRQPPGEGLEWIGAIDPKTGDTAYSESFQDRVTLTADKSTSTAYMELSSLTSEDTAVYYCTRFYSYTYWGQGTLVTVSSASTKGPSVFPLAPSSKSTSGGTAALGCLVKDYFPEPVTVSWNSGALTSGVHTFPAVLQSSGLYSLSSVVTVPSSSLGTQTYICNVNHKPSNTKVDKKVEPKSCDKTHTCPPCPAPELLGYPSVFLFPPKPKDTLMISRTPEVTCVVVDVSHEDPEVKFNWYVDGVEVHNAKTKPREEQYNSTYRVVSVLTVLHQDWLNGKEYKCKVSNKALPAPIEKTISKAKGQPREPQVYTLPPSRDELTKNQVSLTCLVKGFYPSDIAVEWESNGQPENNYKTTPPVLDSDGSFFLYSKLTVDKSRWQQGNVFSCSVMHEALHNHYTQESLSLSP
light: DIVMTQSPLSLPVTPGEPASISCQASESLVHSNRNTYLHWYLQKPGQSPQLLIYKVSNRFSGVPDRFSGSGSGTDFTLKISRVEAEDVGVYYCSQNTHVPPTFGQGTKVEIERTVAAPSVFIFPPSDEQLKSGTASVVCLLNNFYPREAKVQWKVDNALQSGNSQESVTEQDSKDSTYSLSSTLTLSKADYEKHKVYACEVTHQGLSSPVTKSFNRGEC
notes: copies: 2 + 2
relative binding [22]: 0 parent B3=100

B8: GpH7-B3 N325L/GpL16-k0 (antibody, human IgG1, kappa)
heavy: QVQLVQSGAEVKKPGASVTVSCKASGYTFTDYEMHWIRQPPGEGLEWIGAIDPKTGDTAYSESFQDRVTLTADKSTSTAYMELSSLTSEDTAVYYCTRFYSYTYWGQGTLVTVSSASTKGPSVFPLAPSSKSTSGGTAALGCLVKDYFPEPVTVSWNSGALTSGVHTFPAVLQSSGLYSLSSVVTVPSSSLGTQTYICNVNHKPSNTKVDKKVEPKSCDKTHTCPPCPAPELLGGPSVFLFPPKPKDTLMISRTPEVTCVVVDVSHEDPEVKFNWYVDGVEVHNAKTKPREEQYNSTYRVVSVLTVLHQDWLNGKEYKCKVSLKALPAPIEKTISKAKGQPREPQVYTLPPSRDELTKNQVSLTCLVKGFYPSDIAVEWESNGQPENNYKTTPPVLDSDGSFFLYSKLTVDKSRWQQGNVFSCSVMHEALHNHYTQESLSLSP
light: B7 light
notes: copies: 2 + 2
relative binding [22]: 0 parent B3=100

Continued, values first:

binding result [1]: binds
B1: MS1032LO06-P1499m (antibody, human IgG1, kappa)
heavy: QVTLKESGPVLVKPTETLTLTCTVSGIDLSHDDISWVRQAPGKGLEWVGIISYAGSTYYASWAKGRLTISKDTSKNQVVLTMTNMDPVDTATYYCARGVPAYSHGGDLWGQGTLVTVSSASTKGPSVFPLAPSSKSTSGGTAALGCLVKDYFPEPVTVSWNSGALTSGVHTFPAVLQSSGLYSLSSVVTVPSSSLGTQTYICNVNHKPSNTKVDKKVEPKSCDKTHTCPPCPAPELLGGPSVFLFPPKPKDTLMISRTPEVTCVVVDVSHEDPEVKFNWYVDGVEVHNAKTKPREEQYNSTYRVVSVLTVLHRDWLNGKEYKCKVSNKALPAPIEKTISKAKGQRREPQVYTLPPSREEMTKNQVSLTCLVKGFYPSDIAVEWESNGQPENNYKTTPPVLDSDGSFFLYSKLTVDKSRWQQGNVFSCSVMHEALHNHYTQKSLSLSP
light: DIVMTQSPATLSLSPGERATLSCTSSQSVYHANWLSWFQQKPGQPPKLLIYWASTLAYGVPSRFSGSGSGTDFTLTISSLQPEDAATYYCAGGYGGGRYAFGQGTKVEIKRTVAAPSVFIFPPSDEQLKSGTASVVCLLNNFYPREAKVQWKVDNALQSGNSQESVTEQDSKDSTYSLSSTLTLSKADYEKHKVYACEVTHQGLSSPVTKSFNRGEC

binding result [1]: binds
B2: MS1032LO06-P1540m (antibody, human IgG1, kappa)
heavy: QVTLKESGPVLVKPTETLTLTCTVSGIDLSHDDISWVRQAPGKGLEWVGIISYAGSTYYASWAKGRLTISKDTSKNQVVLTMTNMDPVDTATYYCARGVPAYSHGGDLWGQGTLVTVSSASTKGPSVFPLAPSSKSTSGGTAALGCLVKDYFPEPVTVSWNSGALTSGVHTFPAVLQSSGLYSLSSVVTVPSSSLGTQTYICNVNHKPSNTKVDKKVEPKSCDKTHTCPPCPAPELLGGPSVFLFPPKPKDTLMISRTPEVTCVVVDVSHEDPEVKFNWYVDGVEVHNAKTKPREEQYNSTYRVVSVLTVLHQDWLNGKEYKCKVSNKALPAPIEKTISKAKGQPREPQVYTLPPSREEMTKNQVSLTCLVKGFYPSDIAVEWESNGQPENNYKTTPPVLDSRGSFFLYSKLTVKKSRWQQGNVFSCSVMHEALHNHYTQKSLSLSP
light: B1 light
notes: copies: 2 + 2

binding result [1]: binds
B3: MS103205H795-SG141/M103202L889-SK1 (antibody, human IgG1, kappa)
heavy: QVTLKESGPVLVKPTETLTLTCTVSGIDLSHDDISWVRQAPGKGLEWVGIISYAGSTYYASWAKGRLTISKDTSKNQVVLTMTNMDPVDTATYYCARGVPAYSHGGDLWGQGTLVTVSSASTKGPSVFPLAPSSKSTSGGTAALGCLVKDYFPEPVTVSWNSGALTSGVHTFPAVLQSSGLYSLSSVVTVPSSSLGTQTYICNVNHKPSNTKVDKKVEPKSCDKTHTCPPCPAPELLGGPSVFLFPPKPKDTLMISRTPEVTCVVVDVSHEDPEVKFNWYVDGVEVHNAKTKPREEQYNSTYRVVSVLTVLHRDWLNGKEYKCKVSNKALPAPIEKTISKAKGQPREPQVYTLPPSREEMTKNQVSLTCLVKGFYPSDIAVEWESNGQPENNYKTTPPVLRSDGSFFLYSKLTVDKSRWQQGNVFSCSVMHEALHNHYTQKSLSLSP
light: B1 light
notes: copies: 2 + 2

Kd [3]: 0.165 nM
koff [3]: 0.000197 s⁻¹
kon [3]: 1.19e+06 M⁻¹ s⁻¹
Kd [4]: 0.149 nM
koff [4]: 0.000217 s⁻¹
kon [4]: 1.45e+06 M⁻¹ s⁻¹
Kd [12]: 8.9 nM
koff [12]: 0.0068 s⁻¹
kon [12]: 764000 M⁻¹ s⁻¹
Kd [13]: 6.15 nM
koff [13]: 0.00625 s⁻¹
kon [13]: 1.02e+06 M⁻¹ s⁻¹
Kd [14]: 19.5 nM
koff [14]: 0.0242 s⁻¹
kon [14]: 1.22e+06 M⁻¹ s⁻¹
Kd [16]: 0.954 nM
koff [16]: 0.0011 s⁻¹
kon [16]: 1.15e+06 M⁻¹ s⁻¹
Kd [17]: 0.713 nM
koff [17]: 0.00107 s⁻¹
kon [17]: 1.5e+06 M⁻¹ s⁻¹
Kd [18]: 0.788 nM
koff [18]: 0.00129 s⁻¹
kon [18]: 1.64e+06 M⁻¹ s⁻¹
B5: MS_M103205H714-SG1/M103202L861-SK1 (antibody, human IgG1, kappa, V domains shown)
VH: B4 VH with S31H, Y32T, T104H
VL: B4 VL with Q24T, D31H, S58Y, L98R
notes: also called MS1032LO01-SG1

binding result [19]: no binding
binding result [20]: no binding
binding result [21]: no binding
B6: MST1032 (as used in Example 26) (antibody, V domains shown)
VH: QSLEESGGRLVTPGGSLTVTCRVSGIDLSSYDISWVRQAPGKGLEWIGIISYAGSTYYASWAKGRFTISKTSTTVDLKMTSLTTEDTATYFCARGVPAYSTGGDLWGPGTLVTVSS
VL: AQVLTQTASSVSAAVGGTVTINCQSSQSVYDNNWLSWFQQKPGQPPKLLIYWASTLASGVPSRFKGSGSGTQFTLTISDLECDDAATYYCAGGYGGGLYAFGGGTKVEIK
